In patent US20230126400A1:

Tests used:
Details in all cases: remark: other sources report otherwise
[1] = target: human MS4A4A (human), Q96JQ5; assay: flow cytometry (anti-mouse IgG Fc-APC) on U937 cells transfected with human MS4A4A (Plate B); untransfected U937 cells (Plate A): mean 313
[2] = target: human MS4A4A (human), Q96JQ5; assay: functional affinity, FACS titration on stably transfected 300.19 cells
[3] = target: human MS4A4A (human), Q96JQ5; assay: flow cytometry (anti-mouse IgG Fc-APC) on 300.19 cells transfected with human MS4A4A (Plate D); untransfected 300.19 cells (Plate C): mean 122

Binder	Mean : APC-A [1]	Kd [2]	Mean : APC-A [3]
anti-MS4A4A antibody 4A-21 (murine) (antibody, IgG1, V domains shown) VH: QIQLVQSGPELKKPGETVKISCKASGYIFTSYGLSWVKQTPGKGLKWMGWINTYSGVPTYANDFKGRFAFSLETSASTTYLRINNLKNDDTATYFCARSLVDYWGQGTPLTVSS VL: not shown	7370	14 nM	3600
anti-MS4A4A antibody 4A-21, huIgG1 chimera (antibody, V domains shown) VH: QIQLVQSGPELKKPGETVKISCKASGYIFTSYGLSWVKQTPGKGLKWMGWINTYSGVPTYANDFKGRFAFSLETSASTTYLRINNLKNDDTATYFCARSLVDYWGQGTPLTVSS VL: not shown		8.7 nM	
